A word on the Km: it is the substrate concentration at which the rate is half of its maximum. By kcat is commonly meant the number of substrate molecules converted per active site and unit of time at saturation. For orientation: kcat/Km means the second-order rate constant that governs catalysis at low substrate concentration.

One series deals with T1, AncLLysO (synthetic construct, UniProt Z9DQU9YC40).
T1 sequence (Z9DQU9YC40 1-589): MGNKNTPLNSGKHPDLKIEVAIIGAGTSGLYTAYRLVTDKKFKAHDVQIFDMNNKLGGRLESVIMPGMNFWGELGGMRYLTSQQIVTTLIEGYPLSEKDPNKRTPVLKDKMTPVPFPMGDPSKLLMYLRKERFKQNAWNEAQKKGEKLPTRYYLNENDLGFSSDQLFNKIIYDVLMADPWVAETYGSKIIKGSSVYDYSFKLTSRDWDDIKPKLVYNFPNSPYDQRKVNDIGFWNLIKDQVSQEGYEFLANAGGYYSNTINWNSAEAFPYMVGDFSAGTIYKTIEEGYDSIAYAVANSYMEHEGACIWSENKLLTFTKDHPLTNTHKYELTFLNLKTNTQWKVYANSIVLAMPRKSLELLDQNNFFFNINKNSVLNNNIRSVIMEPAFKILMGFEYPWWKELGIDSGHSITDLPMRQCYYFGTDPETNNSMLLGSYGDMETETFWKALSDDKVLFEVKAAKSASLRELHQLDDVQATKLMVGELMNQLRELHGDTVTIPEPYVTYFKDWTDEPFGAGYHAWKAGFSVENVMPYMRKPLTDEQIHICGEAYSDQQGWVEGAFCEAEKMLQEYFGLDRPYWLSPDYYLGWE
Kind of series: X-ray crystal structure, […]-2.[…] Å. Type of series: binding. Particulars: substrate-free form; crystals at pH 7.5.

For another series, the system named is N=C(N)NCCC[C@H](N)C(=O)O. The series can be described thus: purified protein. Particulars: 100 mM Bis-Tris-HCl pH 7.0, O2 as co-substrate.
Substrate in series [1]: NCCC[C@H](N)C(=O)O
Kind of series: purified protein. Particulars: 100 mM Bis-Tris-HCl pH 7.0, O2 as co-substrate.

Substrate in series [2]: NCCCC[C@H](N)C(=O)O
Kind of series: purified protein. Particulars: 100 mM Bis-Tris-HCl pH 7.0, O2 as co-substrate.

Substrate in series [3]: N=C(N)NCCC[C@H](N)C(=O)O
Kind of series: purified protein. Particulars: 100 mM Bis-Tris-HCl pH 7.0, O2 as co-substrate. The source holds these as a separate data set.

As for `Cc1cc2nc3c(=O)[nH]c(=O)nc-3n(C[C@H](O)[C@H](O)[C@H](O)COP(=O)(O)OP(=O)(O)OC[C@H]3O[C@@H](n4cnc5c(N)ncnc54)[C@H](O)[C@@H]3O)c2cc1C` [FAD], on AncLLysO, the “X-ray crystal structure, 2.2-2.4 Å” value is listed as “the Rossmann-core fold, which recognizes FAD”.
In the case of AncLLysO (synthetic construct), in the series with N=C(N)NCCC[C@H](N)C(=O)O, the Km is 6900 ± 1100 µM, the kcat was 11.4 ± 1 s⁻¹ and the kcat/Km stood at 1700 M⁻¹ s⁻¹.

B1: CaLLysO (Chryseobacterium angstadtii) (protein)
chain: MNKNTPLNTGKQPDLKTEVAIIGAGTSGLYTAYRLVTDKKYTASEVQIFDMNDKLGGRLESVIMPGMNFWGELGGMRYLTSQEIVTTLIEGYPLSETDPAKRIPVLKDKMTPVPFPMGDPSKLLMYLRKDRCKQDAWTVAQGEGEKLPTRYYLNDDDFGFSSDQLFNKVIYDVLMADAWVAETYGKKIIKGSSIYDYSFELTSRDWDDIKPKLVYNFPNSPYDQRKVNDLGFWNLLKDQVSQEGYEFLANAGGYYSNTINWNAAEAFPYMVGDFSAGTIYKTIEEGYDSIAYAVANSYMEHEGACIWSKNKLLTFTKDHDLKSTYKYRLTFLNLETNTQWNVYANTLVLAMPRKSLELLDQDNFFFNINENSVLNENIRSVIMEPAFKILMGFPYPWWKELGIDSGHSITDLPMRQCYYFGTDPQTNNSMLLGSYGDMETETFWKALSDDKILFEVKAAKSASLKELHELDDVQATRMMVDELMNQLRELHGEEITIPEPYVTYFKDWTDEPFGAGYHAWKAGFSVENVMPYMRKPVADEQIHIVGEAYSDQQGWVEGAFCEAEKMLQEYFGLNRPIWLNPDYYLGW
In the case of B1, the Michaelis constant (Km) in the series “purified protein [1]” was found to be 4400 ± 400 µM; in the series “purified protein [2]”, 27 ± 3 µM; in “purified protein [3]”, 340 ± 30 µM. The kcat in the series “purified protein [1]” was determined as 3.6 s⁻¹; in the series “purified protein [3]”, 11.4 ± 0.1 s⁻¹. The kcat/Km turned out to be 810 M⁻¹ s⁻¹ in the series “purified protein [1]” and 33200 M⁻¹ s⁻¹ in “purified protein [3]”.
